Among the data in PMC5045792 are GFP expression, percent of GpA values, retold here.

The target in assay [1] is ToxR-TM-MBP chimera with the transmembrane domain of the FtsI homolog annotated for S. pneumoniae (S. pneumoniae). The assay can be described thus: TOXGREEN
The target of assay [2] is ToxR-TM-MBP chimera with the transmembrane domain of the FtsI homolog annotated for S. pyogenes (S. pyogenes).

As to “ToxR-TM-MBP chimera with the transmembrane domain of the FtsI homolog annotated for S. pneumoniae (domain or fragment)”, the GFP expression, percent of GpA in assay [1] was > 100 % of GpA. For “ToxR-TM-MBP chimera with the transmembrane domain of the FtsI homolog annotated for S. pyogenes (domain or fragment)”, in assay [2], the GFP expression, percent of GpA is > 100 % of GpA.
